Data taken from patent US20070134215A1.

Target: BMP-2
Test: cell-based or functional assay

For “Recombinant Mouse Noggin/Fc Chimera protein (R&D Systems) (from UniProt P97466 28-232) (Fc fusion)”, which appearance of beating EBs (myocardial differentiation-inducing effect of Noggin protein at 150 ng/mL on ES cells, floating culture) is on record?
The appearance of beating EBs (myocardial differentiation-inducing effect of Noggin protein at 150 ng/mL on ES cells, floating culture) was greater than 5 ng/mL.
